{"source": "paper PMC7870875", "about": "(Scientific Reports, 2021)", "key": {"[1]": {"target": "T1, full-length Spike protein of SARS-CoV-2 (SARS-CoV-2 (Wuhan-Hu-1 reference; …, UniProt P0DTC2)", "T1 construct": "source: bought: SINOBiological; produced in a baculovirus expression system", "assay": "far-Western, overlay or dot blot", "conditions": "one partner purified"}, "[2]": {"target": "T2, Spike-GFP (SARS-CoV-2 (Wuhan-Hu-1 reference; …, UniProt P0DTC2)", "T2 construct": "also called S-GFP", "assay": "immunostaining of cells or tissue", "conditions": "partners not purified"}}, "data": [{"binder": "intimin-Nanobody fusion of clone W23 (bacterial display) (VHH, also called clone W23 total protein extract) VHH: QVQLVESGGGLVQPGESLRLSCAASGNIFGIAAVHWFRKAPGKEREFTAGFGSDGSTNYANSVKGRFTISRDNAKNTTYLQMNSLKPEDTAVYYCHALIKNELGFLDYWGPGTQVTVSS", "values": [{"measurement": "binding result", "setting": "[1]", "result": "binds"}, {"measurement": "binding result", "setting": "[2]", "result": "binds"}]}]}
